This is an account of results in patent US20140377253A1 (published 2014).

Test [1] has as its target T1, FcγRIIB expressed on cells (UniProt P31994 43-310).
T1 chain: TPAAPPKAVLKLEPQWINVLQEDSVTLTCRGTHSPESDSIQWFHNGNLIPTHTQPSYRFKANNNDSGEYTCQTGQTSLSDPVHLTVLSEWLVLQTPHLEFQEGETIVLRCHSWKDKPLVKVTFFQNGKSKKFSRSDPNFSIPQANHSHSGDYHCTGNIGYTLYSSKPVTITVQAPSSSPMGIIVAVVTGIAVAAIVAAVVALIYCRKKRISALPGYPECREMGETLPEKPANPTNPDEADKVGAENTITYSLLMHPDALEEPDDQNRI
Kind of test: FACS.

Test [2] has as its target FcγRIIIA expressed on cells (UniProt P08637 17-254). Description: FACS.

Chain of FcγRIIIA expressed on cells (P08637 17-254): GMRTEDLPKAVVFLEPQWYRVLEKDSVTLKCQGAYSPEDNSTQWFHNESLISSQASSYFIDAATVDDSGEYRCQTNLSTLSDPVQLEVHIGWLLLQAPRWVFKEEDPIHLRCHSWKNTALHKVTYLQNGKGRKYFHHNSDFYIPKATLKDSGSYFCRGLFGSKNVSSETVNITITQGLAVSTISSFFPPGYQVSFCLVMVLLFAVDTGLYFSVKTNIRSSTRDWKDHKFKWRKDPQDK

B1: V263L (protein)
chain: APELLGGPSVFLFPPKPKDTLMISRTPEVTCVLVDVSHEDPEVKFNWYVDGVEVHNAKTKPREEQYNSTYRVVSVLTVLHQDWLNGKEYKCKVSNKALPAPIEKTISKAK
B1: the figures for the EC50 in test [1] and in test [2] were 1.8 nM and 1.52 nM, respectively.

B2: V273E (protein)
chain: APELLGGPSVFLFPPKPKDTLMISRTPEVTCVVVDVSHEDPEEKFNWYVDGVEVHNAKTKPREEQYNSTYRVVSVLTVLHQDWLNGKEYKCKVSNKALPAPIEKTISKAK
For B2, the EC50 in test [1] came to 1.66 nM; in test [2] it was 1.78 nM.

B3: V305K (protein)
chain: APELLGGPSVFLFPPKPKDTLMISRTPEVTCVVVDVSHEDPEVKFNWYVDGVEVHNAKTKPREEQYNSTYRVVSKLTVLHQDWLNGKEYKCKVSNKALPAPIEKTISKAK
For B3, the EC50 in test [1] worked out at 1.93 nM; in test [2], 0.51 nM.

B4: V273S (protein)
chain: APELLGGPSVFLFPPKPKDTLMISRTPEVTCVVVDVSHEDPESKFNWYVDGVEVHNAKTKPREEQYNSTYRVVSVLTVLHQDWLNGKEYKCKVSNKALPAPIEKTISKAK
Consider B4, for which the EC50 in test [1] is 1.72 nM; in test [2] it was 1.33 nM.

B5: V273C (protein)
chain: APELLGGPSVFLFPPKPKDTLMISRTPEVTCVVVDVSHEDPECKFNWYVDGVEVHNAKTKPREEQYNSTYRVVSVLTVLHQDWLNGKEYKCKVSNKALPAPIEKTISKAK
In the case of B5, the EC50 in test [1] turned out to be 2.03 nM; in test [2] it was 1.19 nM.

B6: V273M (protein)
chain: APELLGGPSVFLFPPKPKDTLMISRTPEVTCVVVDVSHEDPEMKFNWYVDGVEVHNAKTKPREEQYNSTYRVVSVLTVLHQDWLNGKEYKCKVSNKALPAPIEKTISKAK
Take B6: the EC50 was determined as 1.63 nM in test [1] and 1.59 nM in test [2].

B7: V273Y (protein)
chain: APELLGGPSVFLFPPKPKDTLMISRTPEVTCVVVDVSHEDPEYKFNWYVDGVEVHNAKTKPREEQYNSTYRVVSVLTVLHQDWLNGKEYKCKVSNKALPAPIEKTISKAK
Turning to B7, the concentration giving a half-maximal response (EC50) was found to be 1.18 nM in test [1] and 3.19 nM in test [2].

B8: V273F (protein)
chain: APELLGGPSVFLFPPKPKDTLMISRTPEVTCVVVDVSHEDPEFKFNWYVDGVEVHNAKTKPREEQYNSTYRVVSVLTVLHQDWLNGKEYKCKVSNKALPAPIEKTISKAK
For the molecule B8, the EC50 in test [1] is 1.08 nM; in test [2] it was 2.01 nM.

B9: V266L (protein)
chain: APELLGGPSVFLFPPKPKDTLMISRTPEVTCVVVDLSHEDPEVKFNWYVDGVEVHNAKTKPREEQYNSTYRVVSVLTVLHQDWLNGKEYKCKVSNKALPAPIEKTISKAK
Take B9: the EC50 in test [1] is 2.22 nM; in test [2] it was 0.76 nM.

B10: V305W (protein)
chain: APELLGGPSVFLFPPKPKDTLMISRTPEVTCVVVDVSHEDPEVKFNWYVDGVEVHNAKTKPREEQYNSTYRVVSWLTVLHQDWLNGKEYKCKVSNKALPAPIEKTISKAK
On to B10, for which the EC50 in test [1] turned out to be 2.86 nM; in test [2], 0.74 nM.

B11: V273L (protein)
chain: APELLGGPSVFLFPPKPKDTLMISRTPEVTCVVVDVSHEDPELKFNWYVDGVEVHNAKTKPREEQYNSTYRVVSVLTVLHQDWLNGKEYKCKVSNKALPAPIEKTISKAK
For the molecule B11, the EC50 is 1.66 nM in test [1] and 0.69 nM in test [2].
